Measured values reported in patent US20210349104A1 (MESO SCALE TECHNOLOGIES, published 2021).

Target: T1, ACE2 (angiotensin-converting enzyme 2), labeled (human, UniProt Q9BYF1 18-740)
T1 construct: also called labeled ACE2
Test: labeled ACE2 on immobilized Mixed Panel, ECL

T1 sequence (Q9BYF1 18-740 limits assumed): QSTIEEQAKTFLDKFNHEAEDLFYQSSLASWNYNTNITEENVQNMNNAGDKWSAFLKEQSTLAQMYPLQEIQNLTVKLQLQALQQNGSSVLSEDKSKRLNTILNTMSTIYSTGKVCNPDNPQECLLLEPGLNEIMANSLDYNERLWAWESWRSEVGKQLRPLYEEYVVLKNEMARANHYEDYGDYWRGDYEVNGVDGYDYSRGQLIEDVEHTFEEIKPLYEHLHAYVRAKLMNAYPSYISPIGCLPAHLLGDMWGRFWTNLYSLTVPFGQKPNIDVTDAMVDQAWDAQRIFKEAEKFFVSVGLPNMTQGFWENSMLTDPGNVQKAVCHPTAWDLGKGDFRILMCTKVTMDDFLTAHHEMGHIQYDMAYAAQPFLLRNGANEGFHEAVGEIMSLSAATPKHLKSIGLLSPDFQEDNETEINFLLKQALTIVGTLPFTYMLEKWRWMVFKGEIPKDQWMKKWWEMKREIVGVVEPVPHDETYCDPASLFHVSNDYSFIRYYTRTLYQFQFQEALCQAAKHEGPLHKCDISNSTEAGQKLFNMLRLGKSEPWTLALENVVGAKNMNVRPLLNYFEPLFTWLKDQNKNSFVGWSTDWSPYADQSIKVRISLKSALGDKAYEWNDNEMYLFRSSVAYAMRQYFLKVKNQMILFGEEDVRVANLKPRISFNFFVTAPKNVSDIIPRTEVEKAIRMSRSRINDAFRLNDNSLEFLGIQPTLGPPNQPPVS

Binder | binding result
MERS-CoV S protein (other, also called S protein from MERS-CoV) YVDVGPDSVKSACIEVDIQQTFFDKTWPRPIDVSKADGIIYPQGRTYSNITITYQGLFPYQGDHGDMYVYSAGHATGTTPQKLFVANYSQDVKQFANGFVVRIGAAANSTGTVIISPSTSATIRKIYPAFMLGSSVGNFSDGKMGRFFNHTLVLLPDGCGTLLRAFYCILEPRSGNHCPAGNSYTSFATYHTPATDCSDGNYNRNASLNSFKEYFNLRNCTFMYTYNITEDEILEWFGITQTAQGVHLFSSRYVDLYGGNMFQFATLPVYDTIKYYSIIPHSIRSIQSDRKAWAAFYVYKLQPLTFLLDFSVDGYIRRAIDCGFNDLSQLHCSYESFDVESGVYSVSSFEAKPSGSVVEQAEGVECDFSPLLSGTPPQVYNFKRLVFTNCNYNLTKLLSLFSVNDFTCSQISPAAIASNCYSSLILDYFSYPLSMKSDLSVSSAGPISQFNYKQSFSNPTCLILATVPHNLTTITKPLKYSYINKCSRFLSDDRTEVPQLVNANQYSPCVSIVPSTVWEDGDYYRKQLSPLEGGGWLVASGSTVAMTEQLQMGFGITVQYGTDTNSVCPKLEFANDTKIASQLGNCVEYSLYGVSGRGVFQNCTAVGVRQQRFVYDAYQNLVGYYSDDGNYYCLRACVSVPVSVIYDKETKTHATLFGSVACEHISSTMSQYSRSTRSMLKRRDSTYGPLQTPVGCVLGLVNSSLFVEDCKLPLGQSLCALPDTPSTLTPRSVRSVPGEMRLASIAFNHPIQVDQLNSSYFKLSIPTNFSFGVTQEYIQTTIQKVTVDCKQYVCNGFQKCEQLLREYGQFCSKINQALHGANLRQDDSVRNLFASVKSSQSSPIIPGFGGDFNLTLLEPVSISTGSRSARSAIEDLLFDKVTIADPGYMQGYDDCMQQGPASARDLICAQYVAGYKVLPPLMDVNMEAAYTSSLLGSIAGVGWTAGLSSFAAIPFAQSIFYRLNGVGITQQVLSENQKLIANKFNQALGAMQTGFTTTNEAFHKVQDAVNNNAQALSKLASELSNTFGAISASIGDIIQRLDVLEQDAQIDRLINGRLTTLNAFVAQQLVRSESAALSAQLAKDKVNECVKAQSKRSGFCGQGTHIVSFVVNAPNGLYFMHVGYYPSNHIEVVSAYGLCDAANPTNCIAPVNGYFIKTNNTRIVDEWSYTGSSFYAPEPITSLNTKYVAPQVTYQNISTNLPPPLLGNSTGIDFQDELDEFFKNVSTSIPNFGSLTQINTTLLDLTYEMLSLQQVVKALNESYIDLKELGNYTY | no binding
HCoV-HKU1 S protein (other, also called S protein from HCoV-HKU1) AVIGDFNCTNFAINDLNTTVPRISEYVVDVSYGLGTYYILDRVYLNTTILFTGYFPKSGANFRDLSLKGTTYLSTLWYQKPFLSDFNNGIFSRVKNTKLYVNKTLYSEFSTIVIGSVFINNSYTIVVQPHNGVLEITACQYTMCEYPHTICKSKGSSRNESWHFDKSEPLCLFKKNFTYNVSTDWLYFHFYQERGTFYAYYADSGMPTTFLFSLYLGTLLSHYYVLPLTCNAISSNTDNETLQYWVTPLSKRQYLLKFDNRGVITNAVDCSSSFFSEIQCKTKSLLPNTGVYDLSGFTVKPVATVHRRIPDLPDCDIDKWLNNFNVPSPLNWERKIFSNCNFNLSTLLRLVHTDSFSCNNFDESKIYGSCFKSIVLDKFAIPNSRRSDLQLGSSGFLQSSNYKIDTTSSSCQLYYSLPAINVTINNYNPSSWNRRYGFNNFNLSSHSVVYSRYCFSVNNTFCPCAKPSFASSCKSHKPPSASCPIGTNYRSCESTTVLDHTDWCRCSCLPDPITAYDPRSCSQKKSLVGVGEHCAGFGVDEEKCGVLDGSYNVSCLCSTDAFLGWSYDTCVSNNRCNIFSNFILNGINSGTTCSNDLLQPNTEVFTDVCVDYDLYGITGQGIFKEVSAVYYNSWQNLLYDSNGNIIGFKDFVTNKTYNIFPCYAGRVSAAFHQNASSLALLYRNLKCSYVLNNISLTTQPYFDSYLGCVFNADNLTDYSVSSCALRMGSGFCVDYNSPSSSSSRRKRRSISASYRFVTFEPFNVSFVNDSIESVGGLYEIKIPTNFTIVGQEEFIQTNSPKVTIDCSLFVCSNYAACHDLLSEYGTFCDNINSILDEVNGLLDTTQLHVADTLMQGVTLSSNLNTNLHFDVDNINFKSLVGCLGPHCGSSSRSFFEDLLFDKVKLSDVGFVEAYNNCTGGSEIRDLLCVQSFNGIKVLPPILSESQISGYTTAATVAAMFPPWSAAAGIPFSLNVQYRINGLGVTMDVLNKNQKLIATAFNNALLSIQNGFSATNSALAKIQSVVNSNAQALNSLLQQLFNKFGAISSSLQEILSRLDALEAQVQIDRLINGRLTALNAYVSQQLSDISLVKFGAALAMEKVNECVKSQSPRINFCGNGNHILSLVQNAPYGLLFMHFSYKPISFKTVLVSPGLCISGDVGIAPKQGYFIKHNDHWMFTGSSYYYPEPISDKNVVFMNTCSVNFTKAPLVYLNHSVPKLSDFESELSHWFKNQTSIAPNLTLNLHTINATFLDLYYEMNLIQESIKSLN | no binding
HCoV-OC43 S protein (other, also called S protein from HCoV-OC43) AVIGDLKCTSDNINDKDTGPPPISTDTVDVTNGLGTYYVLDRVYLNTTLFLNGYYPTSGSTYRNMALKGSVLLSRLWFKPPFLSDFINGIFAKVKNTKVIKDRVMYSEFPAITIGSTFVNTSYSVVVQPRTINSTQDGDNKLQGLLEVSVCQYNMCEYPQTICHPNLGNHRKELWHLDTGVVSCLYKRNFTYDVNADYLYFHFYQEGGTFYAYFTDTGVVTKFLFNVYLGMALSHYYVMPLTCNSKLTLEYWVTPLTSRQYLLAFNQDGIIFNAEDCMSDFMSEIKCKTQSIAPPTGVYELNGYTVQPIADVYRRKPNLPNCNIEAWLNDKSVPSPLNWERKTFSNCNFNMSSLMSFIQADSFTCNNIDAAKIYGMCFSSITIDKFAIPNGRKVDLQLGNLGYLQSFNYRIDTTATSCQLYYNLPAANVSVSRFNPSTWNKRFGFIEDSVFKPRPAGVLTNHDVVYAQHCFKAPKNFCPCKLNGSCVGSGPGKNNGIGTCPAGTNYLTCDNLCTPDPITFTGTYKCPQTKSLVGIGEHCSGLAVKSDYCGGNSCTCRPQAFLGWSADSCLQGDKCNIFANFILHDVNSGLTCSTDLQKANTDIILGVCVNYDLYGILGQGIFVEVNATYYNSWQNLLYDSNGNLYGFRDYIINRTFMIRSCYSGRVSAAFHANSSEPALLFRNIKCNYVFNNSLTRQLQPINYFDSYLGCVVNAYNSTAISVQTCDLTVGSGYCVDYSKNRRSRGAITTGYRFTNFEPFTVNSVNDSLEPVGGLYEIQIPSEFTIGNMVEFIQTSSPKVTIDCAAFVCGDYAACKSQLVEYGSFCDNINAILTEVNELLDTTQLQVANSLMNGVTLSTKLKDGVNFNVDDINFSPVLGCLGSECSKASSRSAIEDLLFDKVKLSDVGFVEAYNNCTGGAEIRDLICVQSYKGIKVLPPLLSENQISGYTLAATSASLFPPWTAAAGVPFYLNVQYRINGLGVTMDVLSQNQKLIANAFNNALYAIQEGFDATNSALVKIQAVVNANAEALNNLLQQLSNRFGAISASLQEILSRLDALEAEAQIDRLINGRLTALNAYVSQQLSDSTLVKFSAAQAMEKVNECVKSQSSRINFCGNGNHIISLVQNAPYGLYFIHFSYVPTKYVTARVSPGLCIAGDRGIAPKSGYFVNVNNTWMYTGSGYYYPEPITENNVVVMSTCAVNYTKAPYVMLNTSIPNLPDFKEELDQWFKNQTSVAPDLSLDYINVTFLDLQVEMNRLQEAIKVLNQSYINLKDIGTYEY | no binding
